# According to patent US7598343B1, “Pharmaceutical formulations of bivalirudin and processes of making the same” (The Medicines Company, priority 2008, dated 2009):
# Columns and labels:
# Type in all cases: physicochemical
# [1] = Asp^9-bivalirudin level by HPLC after adding pH-adjusting solution in two portions of 75% and 25% at 400 rpm (Example 2)
# Experimental: The bivalirudin solution (˜760 mL) comprised bivalirudin at a concentration of 0.050 mg/ml dissolved in a 2.64% w/w mannitol solution. The pH-adjusting solution (233 mL) comprised 0.5 N sodium hydroxide in a 2.64% w/w mannitol solution. The experiment was conducted at a temperature of about 8° C.
# The pH-adjusting solution was divided into a 75% portion and a 25% portion of the total pH-adjusting solution volume. First, the pH and Asp^9-bivalirudin levels were measured before addition of the pH-adjusting solution (baseline). During addition of the 75% portion, at about 400 rpm, the pH was monitored during mixing until the pH achieved a constant level at which time the Asp^9-bivalirudin level was also measured (measurement #1). A portion of this material was allowed to sit for about 6.5 hours and the amount of Asp^9-bivalirudin was again measured (measurement #2). The 25% portion of the pH-adjusting solution was added about 30 minutes after the last base addition and mixing was continued at 400 rpm. The pH was initially recorded and then both the pH and Asp^9-bivalirudin levels were measured after about 30 minutes of mixing (measurement #3). The pH and Asp^9-bivalirudin levels were again recorded after mixing at 400 rpm overnight (measurement #4).
# [2] = Asp^9-bivalirudin level by HPLC after adding pH-adjusting solution in four equal portions with inefficient mixing (Example 1, first part)
# Experimental: In a first part of the study, the bivalirudin solution (˜600 mL) comprised bivalirudin at a concentration of ˜0.1 mg/mL in a 2.64% w/w mannitol solution. The pH-adjusting solution (233 mL) comprised 0.5 N sodium hydroxide in a 2.64% w/w mannitol solution. Asp^9-bivalirudin levels were measured throughout the experiment by high-performance liquid chromatography (HPLC). pH was also measured through the experiment. One measurement of Asp^9-bivalirudin was taken immediately after the bivalirudin solution was formed (baseline).
# The pH-adjusting solution was added to the bivalirudin solution in four equal portions over the total duration of about 1 hour at a temperature of 5-8° C., each addition separated by about 15 minutes. The resulting compounding solution was mixed at between 600 rpm and 700 rpm throughout the addition of the first and second portions of the pH-adjusting solution, and the pH and Asp^9-bivalirudin levels were recorded (measurements #1 and #2). During the addition of the third portion, the mixer was turned off and the pH and Asp^9-bivalirudin levels were recorded (measurement #3A). The mixture was then subjected to high shear mixing at 4000 rpm for 30 seconds and the pH and Asp^9-bivalirudin levels were recorded (measurement #3B). During addition of the fourth portion, the mixer was turned off and the levels of pH and Asp^9-bivaluridin were recorded (measurement #4A). Mixing was then continued for, at least, two minutes at 5300 rpm and the pH was and Asp^9-bilvairudun levels were recorded (measurement #4B). The mixing rate was decreased to about 3600 rpm for 1 hour and the pH and Asp^9-bivalirudin levels were recorded (measurement #5). A portion of the material from measurement #4a was allowed to stand for 7 hours and the pH and Asp^9-bivalirudin levels were recorded (measurement #6).
# [3] = Asp^9-bivalirudin level by HPLC after constant-rate addition of pH-adjusting solution under high shear mixing (Example 3)
# Experimental: The bivalirudin solution (675 mL) comprised 64.4 g dissolved in 2.64% w/w mannitol solution. The bivalirudin solution was divided in half for evaluation of adding the pH-adjusting solution at two different mixing rates. The bivalirudin solution was placed in a vessel with a high shear mixer.
# The pH-adjusting solution (131.2 mL) comprised 0.5 N sodium hydroxide in a 2.64% w/w mannitol solution. The pH-adjusting solution was loaded into a burette, which was connected on the bottom to a tube with a hose. The tube was positioned at the base of the high shear mixer blade inside the mixing vessel containing the bivalirudin solution. A clamp was used to restrict the pH-adjusting solution from passing through the hose.
# The speed of the high shear mixer (Silverson Laboratory Emulsifier Model L4RT) was set to either 1500 rpm or 3000 rpm. The clamp on the hose was removed and the pH-adjusting solution was then added to the bivalirudin solution at a controlled, constant rate of approximately 2 L/min.
# The volume of the compounding solution was then adjusted to a final volume of 562.5 mL.
# For the compounding solution mixed at 1500 rpm, after the pH-adjusting solution was added, the mixing speed was increased to approximately 4500 rpm for a short period of time to allow faster and complete dissolution, and then reduced to 1500 rpm until the solution was completely dissolved. After complete dissolution, the resulting compounding solution was moved from the vessel to a beaker which contained a stir bar. The solution was adjusted to a target pH of 5.3 using 19 mL of the pH-adjusting solution, and then the volume was adjusted to a final volume of 562.5 mL.
# For both mixing conditions, the pH was monitored throughout the addition of the pH-adjusting solution to the bivalirudin solution to form the compounding solution. The level of Asp^9-bivalirudin was measured by HPLC before (baseline) addition of the pH-adjusting solution, after the addition of the pH-adjusting solution (measurement #2), and after the volume of the compounding solution was adjusted to mark (measurement #3).
# [4] = Asp^9-bivalirudin level by HPLC in portions of compounding solution adjusted to pH 8, 9, 10, 12 over time (Example 1, second part)
# Experimental: In a second part of the study, four portions of the final compounding solution from the first part of the study were removed. The pH levels of these portions were adjusted to 8, 9, 10, and 12, respectively, using additional pH-adjusting solution and high shear mixing on a Silverson Laboratory Emulsifier (Model L4RT).
# Samples of the portion of the compounding solution adjusted to pH 8 were taken immediately, and after about 80 minutes, 300 minutes, and 370 minutes. Samples of the portion of the compounding solution adjusted to pH 9 were taken immediately, after about 80 minutes, and 300 minutes. Further, samples of the portion of the compounding solution adjusted to pH 10 and 12 were taken immediately, after about 80 minutes and 170 minutes.
# [5] = Isoelectric point of bivalirudin
# [6] = Asp^9-bivalirudin level by HPLC in compounding solution under high shear mixing (Example 1, third part)
# Description: In a third part of the study, the final compounding solution from the first part of the study was placed into a recirculation vessel for use in a recirculation water bath (Precision Model 181) to be subjected to high shear mixing using a Silverson Laboratory Emulsifier (Model L4RT). Prior to this study, it was thought that bivalirudin solutions were unstable to both heat and shear, thus requiring extreme care in handling bivalirudin during the compounding process. Before subjecting the compounding solution to high shear mixing, the level of Asp^9-bivalirudin was recorded (measurement #1). The compounding solution was then subjected to high shear mixing at ˜6000 rpm for 30 minutes without use of the recirculation water bath; the temperature of the compounding solution due to the high shear mixing rose to about 36° C. A sample was then measured for Asp^9-bivalirudin level (measurement #2). The mixing speed was then slowed to 5000 rpm for 120 minutes and the temperature was measured at about 33° C., and another sample was analyzed for Asp^9-bivalirudin level (measurement #3).
substance,measurement,setting,value
D-Phenylalanyl-L-Prolyl-L-Arginyl-L-Prolyl-Glycyl-Glycyl-Glycyl-Glycyl-L-Asparagyl-Glycyl-L-Aspartyl-L-Phenylalanyl-L-Glutamyl-L-Glutamyl-L-Isoleucyl-L-Prolyl-L-Glutamyl-L-Glutamyl-L-Tyrosyl-L-Leucine trifluoroacetate (salt) hydrate [bivalirudin],% Asp^9-bivalirudin,"[1]; #1: after addition of 75% portion, pH peak at 12.2 then dropped to 8-9",0.44%
same,% Asp^9-bivalirudin,[1]; #2: same as #1 but after sitting for 6.5 hours with no stirring,0.88%
same,% Asp^9-bivalirudin,"[1]; #3: remaining 25% added, pH 12.4 initially then 7.7 after 30 minutes, taken from the bottom",2.19%
same,% Asp^9-bivalirudin,"[1]; #3: remaining 25% added, pH 12.4 initially then 7.7 after 30 minutes, taken from the top",1.85%
same,% Asp^9-bivalirudin,"[1]; #4: same as #3 but after mixing overnight, pH 5.0",1.57%
same,% Asp^9-bivalirudin,"[1]; Baseline: after bivalirudin solution was formed, pH 1.71",0.42%
same,% Asp^9-bivalirudin,"[2]; #2: after addition of second portion of pH-adjusting solution, pH 4.2",0.43%
same,% Asp^9-bivalirudin,"[2]; #3A: after addition of third portion with no mixing, pH ~6 to 8",0.45%
same,% Asp^9-bivalirudin,"[2]; #3B: same as #3A but after mixing (4000 rpm, 30 seconds), pH 5.0",0.74%
same,% Asp^9-bivalirudin,"[2]; #4A: after fourth portion, sat for 10 minutes with no mixing, pH ~8.5 to 9",0.60%
same,% Asp^9-bivalirudin,"[2]; #4B: same as #4A but after mixing, pH 6.0 to 6.5",0.57%
same,% Asp^9-bivalirudin,"[2]; #5: same as #4A but after high speed mixing for 1 hour, pH 5.0",0.71%
same,% Asp^9-bivalirudin,"[2]; #6: same as #4A but 7 hours later with no mixing, pH ~8.5 to 9",2.05%
same,% Asp^9-bivalirudin,"[2]; Baseline: after bivalirudin solution was formed, pH ~2.5",~0.42%
same,% Asp^9-bivalirudin,"[3]; 1500 rpm, #1 after addition of pH-adjusting solution, pH ~6.0",0.31%
same,% Asp^9-bivalirudin,"[3]; 1500 rpm, #2 after compounding solution was adjusted to mark, pH 5.3",0.34%
same,% Asp^9-bivalirudin,"[3]; 1500 rpm, Baseline before addition of pH-adjusting solution, pH ~2.5",0.38%
same,% Asp^9-bivalirudin,"[3]; 3000 rpm, #1 after addition of pH-adjusting solution, pH ~5.6",0.41%
same,% Asp^9-bivalirudin,"[3]; 3000 rpm, #2 after compounding solution was adjusted to mark, pH 5.25",0.40%
same,% Asp^9-bivalirudin,"[3]; 3000 rpm, Baseline before addition of pH-adjusting solution, pH ~2.5",0.43%
same,degradation by high shear mixing,[3]; high shear mixing even up to 4500 rpm,not susceptible to degradation
same,% Asp^9-bivalirudin,"[4]; Baseline, pH 5",0.71%
same,% Asp^9-bivalirudin,"[4]; pH 8, after pH was adjusted",0.71%
same,% Asp^9-bivalirudin,"[4]; pH 8, after ~80 minutes",0.77%
same,% Asp^9-bivalirudin,"[4]; pH 8, after ~300 minutes",1.11%
same,% Asp^9-bivalirudin,"[4]; pH 8, after ~370 minutes",1.26%
same,% Asp^9-bivalirudin,"[4]; pH 9, after pH was adjusted",0.84%
same,% Asp^9-bivalirudin,"[4]; pH 9, after ~80 minutes",1.07%
same,% Asp^9-bivalirudin,"[4]; pH 9, after ~300 minutes",1.84%
same,% Asp^9-bivalirudin,"[4]; pH 10, after pH was adjusted",1.24%
same,% Asp^9-bivalirudin,"[4]; pH 10, after ~80 minutes",2.08%
same,% Asp^9-bivalirudin,"[4]; pH 10, after ~170 minutes",2.59%
same,% Asp^9-bivalirudin,"[4]; pH 12, after pH was adjusted",4.71%
same,% Asp^9-bivalirudin,"[4]; pH 12, after ~80 minutes",8.20%
same,% Asp^9-bivalirudin,"[4]; pH 12, after ~170 minutes",10.95%
same,isoelectric point,[5],about 3.6
same,% Asp^9-bivalirudin,"[6]; #1: before high shear mixing, RT ~20° C.",0.71%
same,% Asp^9-bivalirudin,"[6]; #2: after high shear mixing at 6000 rpm for 30 minutes, 36° C.",0.71%
same,% Asp^9-bivalirudin,"[6]; #3: after mixing rate was reduced to 5000 rpm for 120 minutes, 33° C.",0.75%
same,stability to high shear mixing conditions,[6]; high shear mixing 6000/5000 rpm,stable
